This note sets out measurements from PMC11102832.

For experiment [1], the target named is AM1 receptor (CLR-RAMP2) (human) (UniProt Q16602).
For experiment [2], the target named is AM2 receptor (CLR-RAMP3) (human) (UniProt Q16602).
Experiment [3] has as its target CGRP receptor (CLR-RAMP1) (human) (UniProt Q16602).
Experiment [4] deals with AM1 receptor (CLR-RAMP2) (human) (UniProt Q16602). The source holds these as a separate data set.
In experiment [5] the target is AM2 receptor (CLR-RAMP3) (human) (UniProt Q16602). The source holds these as a separate data set.
The target of experiment [6] is CGRP receptor (CLR-RAMP1) (human) (UniProt Q16602). The source holds these as a separate data set.
Chain of CGRP receptor (CLR-RAMP1) (human) (Q16602 23-461, chain 1 of 2): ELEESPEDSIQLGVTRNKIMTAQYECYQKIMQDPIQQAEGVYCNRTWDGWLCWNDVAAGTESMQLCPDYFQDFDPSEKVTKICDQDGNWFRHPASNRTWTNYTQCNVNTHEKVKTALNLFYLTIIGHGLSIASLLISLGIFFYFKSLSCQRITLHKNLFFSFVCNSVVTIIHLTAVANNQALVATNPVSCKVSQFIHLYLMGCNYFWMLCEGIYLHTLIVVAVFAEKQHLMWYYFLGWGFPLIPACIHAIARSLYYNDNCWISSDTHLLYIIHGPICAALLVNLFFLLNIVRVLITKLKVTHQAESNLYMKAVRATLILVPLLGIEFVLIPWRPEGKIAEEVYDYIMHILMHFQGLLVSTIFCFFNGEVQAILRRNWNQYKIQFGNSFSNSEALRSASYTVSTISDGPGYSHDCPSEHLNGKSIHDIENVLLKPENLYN
Chain of CGRP receptor (CLR-RAMP1) (human) (O60894 27-148, chain 2 of 2, further chain): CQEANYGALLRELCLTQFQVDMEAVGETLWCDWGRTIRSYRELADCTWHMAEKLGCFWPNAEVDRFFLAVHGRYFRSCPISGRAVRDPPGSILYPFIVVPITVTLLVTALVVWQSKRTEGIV
The target in experiment [7] is AM1 receptor (CLR-RAMP2) (human) (UniProt Q16602). This is another data set of the same source.
The target in experiment [8] is AM2 receptor (CLR-RAMP3) (human) (UniProt Q16602). This is another data set of the same source.
Experiment [9] has as its target CGRP receptor (CLR-RAMP1) (human) (UniProt Q16602). The source holds these as a separate data set.
Experiment [10] addresses calcitonin receptor (CTR) (human).
Experiment [11] concerns the target amylin1 receptor (CTR-RAMP1) (human) (UniProt O60894).

Where two headings read alike, the source gives them in different places.

Chain of AM1 receptor (CLR-RAMP2) (human) (Q16602 23-461, chain 1 of 2): as the sequence (Q16602 23-461, chain 1 of 2) above
Chain of AM1 receptor (CLR-RAMP2) (human) (O60895 43-175, chain 2 of 2, further chain): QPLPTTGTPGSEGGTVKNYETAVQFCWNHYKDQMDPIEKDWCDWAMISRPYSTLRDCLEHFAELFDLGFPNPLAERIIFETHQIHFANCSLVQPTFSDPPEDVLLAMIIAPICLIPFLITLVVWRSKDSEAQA
Chain of AM2 receptor (CLR-RAMP3) (human) (Q16602 23-461, chain 1 of 2): as the sequence (Q16602 23-461, chain 1 of 2) above
Chain of AM2 receptor (CLR-RAMP3) (human) (O60896 24-148, chain 2 of 2, further chain): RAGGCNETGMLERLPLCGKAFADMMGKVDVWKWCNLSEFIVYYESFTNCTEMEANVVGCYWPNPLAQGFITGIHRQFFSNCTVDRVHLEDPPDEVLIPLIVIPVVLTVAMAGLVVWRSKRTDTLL
Chain of calcitonin receptor (CTR) (human) (P30988 25-474): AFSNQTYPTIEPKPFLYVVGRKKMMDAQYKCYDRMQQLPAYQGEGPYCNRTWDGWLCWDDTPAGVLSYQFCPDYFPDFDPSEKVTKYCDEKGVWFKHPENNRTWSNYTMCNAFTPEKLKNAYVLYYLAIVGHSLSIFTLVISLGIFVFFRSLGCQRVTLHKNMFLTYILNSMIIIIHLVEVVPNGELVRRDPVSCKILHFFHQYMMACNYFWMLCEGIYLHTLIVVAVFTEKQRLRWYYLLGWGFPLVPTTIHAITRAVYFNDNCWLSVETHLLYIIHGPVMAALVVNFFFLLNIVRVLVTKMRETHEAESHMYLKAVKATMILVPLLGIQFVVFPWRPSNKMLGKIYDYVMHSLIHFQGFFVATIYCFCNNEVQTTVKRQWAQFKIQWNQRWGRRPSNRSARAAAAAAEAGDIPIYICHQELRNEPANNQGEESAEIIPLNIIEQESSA
Chain of amylin1 receptor (CTR-RAMP1) (human) (O60894 whole entry, looked up): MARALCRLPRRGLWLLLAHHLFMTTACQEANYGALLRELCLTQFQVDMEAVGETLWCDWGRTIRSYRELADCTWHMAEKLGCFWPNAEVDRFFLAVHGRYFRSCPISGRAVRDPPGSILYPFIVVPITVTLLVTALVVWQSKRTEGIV
Chain of βCGRP(1-37) (P10092 82-118): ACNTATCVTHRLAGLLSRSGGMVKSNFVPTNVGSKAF

As to “AM2(8-22)-AM(29-38)-AM2(34-47) (peptide)”, the pEC50 of cAMP signaling, end-point concentration-response (CAMYEL BRET, COS-7) in experiment [1] is 7.34; in experiment [2], 8.72; in experiment [3], 8.09.

AM2/IMD(1-47) (peptide): the values for the pEC50 of cAMP signaling, end-point concentration-response (CAMYEL BRET, COS-7) in [4], in experiment [5] and in [6] were 7.66, 8.9 and 7.81, respectively.

For AM2/IMD(8-47) (peptide), the pEC50 of cAMP signaling, end-point concentration-response (CAMYEL BRET, COS-7) in experiment [4] was 8.24; in experiment [5], 9.33; in experiment [6], 8.86; in [7], 8.51; in [8], 9.27; in experiment [9], 9.17.

As for AM2/IMD(8-47) [R23K/R33K] (peptide), the pEC50 of cAMP signaling, end-point concentration-response (CAMYEL BRET, COS-7) in experiment [7] worked out at 7.59; in experiment [8], 8.74; in experiment [9], 8.22.

For the molecule AM2/IMD(8-47) [R23K] (peptide), the results for the pEC50 of cAMP signaling, end-point concentration-response (CAMYEL BRET, COS-7) in experiment [7], in experiment [8] and in experiment [9] were 7.62, 9 and 8.51, respectively.

For the molecule AM2/IMD(8-47) [R23Q/R33K] (peptide), the pEC50 of cAMP signaling, end-point concentration-response (CAMYEL BRET, COS-7) in experiment [7] is 6.9; in experiment [8], 7.75; in experiment [9] it was 7.5.

As to AM2/IMD(8-47) [R33K] (peptide), the pEC50 of cAMP signaling, end-point concentration-response (CAMYEL BRET, COS-7) in experiment [7] came to 7.8; in experiment [8] it was 9.01; in experiment [9], 8.54.

AM2/IMD-53 (peptide): the pEC50 of cAMP signaling, end-point concentration-response (CAMYEL BRET, COS-7) amounted to 7.94 in experiment [4], 8.84 in experiment [5] and 8.36 in experiment [6].

As to “AM(13-38)-AM2(23-33)-AM(39-52) (peptide)”, the pEC50 of cAMP signaling, end-point concentration-response (CAMYEL BRET, COS-7) in experiment [1] came to 8.26; in [2], 8.42; in experiment [3], 8.08.

Turning to AM(13-52) (peptide), the pEC50 of cAMP signaling, end-point concentration-response (CAMYEL BRET, COS-7) in experiment [4] turned out to be 9.54; in experiment [5] it was 9.63; in experiment [7], 9.52; in experiment [8], 9.48.

As to “βCGRP(1-37) (from UniProt P10092 82-118) (peptide)”, the pEC50 of cAMP signaling, end-point concentration-response (CAMYEL BRET, COS-7) in experiment [10] is 7.79.

For KCNTATCATQRLANFLVRSSNNLGPVLPPTNVGSNTY [rat Amylin(1-37)], the pEC50 of cAMP signaling, end-point concentration-response (CAMYEL BRET, COS-7) in [11] amounted to 9.72; in experiment [10] it was 7.63.
